According to patent publication US20210032299A1 (Eli Lilly, published 2021):
Starred links: 1 amine or outer side, 2 acyl side, 3 side chain; linkers in the order of their positions; H or OH if unused. Non-standard residues stand in square brackets, D forms with d. Groups on a side chain read outwards from the residue. No end group written: not given here. *: point of attachment. C20 diacid = O=C(O)CCCCCCCCCCCCCCCCCCC(=O)*; C18 diacid = O=C(O)CCCCCCCCCCCCCCCCC(=O)*; αMePhe(2-F) = C[C@](N)(Cc1ccccc1F)C(=O)O; γGlu = O=C(O)[C@H](CCC(=O)[*:2])N[*:1]; AEEA = NCCOCCOCC(=O)O; Aib = CC(C)(N)C(=O)O

T1: human glucose-dependent insulinotropic peptide receptor (human, UniProt P48546 22-466)
T1 sequence (looked up): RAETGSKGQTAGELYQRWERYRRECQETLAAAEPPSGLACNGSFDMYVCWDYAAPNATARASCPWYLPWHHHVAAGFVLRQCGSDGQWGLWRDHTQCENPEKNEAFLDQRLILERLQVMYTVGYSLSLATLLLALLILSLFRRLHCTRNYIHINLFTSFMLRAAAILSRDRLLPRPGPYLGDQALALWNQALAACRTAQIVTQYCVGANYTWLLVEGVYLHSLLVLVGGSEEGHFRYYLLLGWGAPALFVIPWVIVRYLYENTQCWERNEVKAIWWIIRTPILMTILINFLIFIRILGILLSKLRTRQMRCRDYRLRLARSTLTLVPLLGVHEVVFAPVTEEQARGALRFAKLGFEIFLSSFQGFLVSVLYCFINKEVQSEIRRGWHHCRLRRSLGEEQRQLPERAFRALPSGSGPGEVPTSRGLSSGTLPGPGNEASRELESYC


Experiments:
Assay in all cases: cell-based or functional assay
[1] = target: human glucagon receptor (human, UniProt P47871 26-477)
human glucagon receptor, sequence (P47871 26-477): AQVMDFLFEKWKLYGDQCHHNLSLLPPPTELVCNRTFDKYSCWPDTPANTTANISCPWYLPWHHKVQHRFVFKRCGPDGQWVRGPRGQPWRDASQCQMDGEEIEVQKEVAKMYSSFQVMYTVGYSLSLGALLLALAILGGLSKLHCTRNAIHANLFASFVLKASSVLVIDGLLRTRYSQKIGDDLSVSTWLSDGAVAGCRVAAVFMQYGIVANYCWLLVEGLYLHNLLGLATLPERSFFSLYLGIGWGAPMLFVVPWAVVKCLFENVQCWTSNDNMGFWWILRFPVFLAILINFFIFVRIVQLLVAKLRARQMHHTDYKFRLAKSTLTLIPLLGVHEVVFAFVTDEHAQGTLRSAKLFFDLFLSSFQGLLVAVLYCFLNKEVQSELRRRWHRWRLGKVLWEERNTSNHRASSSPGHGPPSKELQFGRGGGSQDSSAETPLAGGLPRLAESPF

[2] = target: T1, human glucose-dependent insulinotropic …
[3] = target: human GLP-1 receptor (human, UniProt P43220 24-463)

Row | Binder | hGcgR cAMP Rel EC50 [1] [µM] | hGIPR cAMP Rel EC50 [2] [nM] | hGLP1R cAMP Rel EC50 [3] [µM]
1 | YXEGTFISDYSILLDKKAQXEFVQWLLAGGPSSGAPPPS (D-Ala2; K17((2-[2-(2-Amino-ethoxy)-ethoxy]-acetyl)2-(γ-Glu)-CO-(CH2)16-CO2H); Aib20; C-terminal amide) [Example 27] | > 5 | 0.0132 | > 5
2 | YXEGTFISDYSILLDKKAQXEFVEWLLAGGPSSGAPPPS (D-Ala2; K17((2-[2-(2-Amino-ethoxy)-ethoxy]-acetyl)2-(γ-Glu)-CO-(CH2)16-CO2H); Aib20; C-terminal amide) [Example 29] | > 5 | 0.00679 | > 5
3 | YXEGTFISDYSILLDKKAQXEFVNWLLEGGPSSGAPPPS (D-Ala2; K17((2-[2-(2-Amino-ethoxy)-ethoxy]-acetyl)2-(γ-Glu)-CO-(CH2)16-CO2H); Aib20; C-terminal amide) [Example 28] | > 5 | 0.0118 | > 5
4 | Ac-[dY]AEGT[αMePhe(2-F)]ISDYSIALDKK([AEEA-AEEA-γGlu-C18 diacid])HQ[Aib]EFVNYLLAGGPSSGAPPPS-NH2 (SMILES CC[C@H](C)[C@H](NC(=O)[C@H](CO)NC(=O)[C@H](Cc1ccc(O)cc1)NC(=O)[C@H](CC(=O)O)NC(=O)[C@H](CO)NC(=O)[C@@H](NC(=O)[C@](C)(Cc1ccccc1F)NC(=O)[C@@H](NC(=O)CNC(=O)[C@H](CCC(=O)O)NC(=O)[C@H](C)NC(=O)[C@@H](Cc1ccc(O)cc1)NC(C)=O)[C@@H](C)O)[C@@H](C)CC)C(=O)N[C@@H](C)C(=O)N[C@@H](CC(C)C)C(=O)N[C@@H](CC(=O)O)C(=O)N[C@@H](CCCCN)C(=O)N[C@@H](CCCCNC(=O)COCCOCCNC(=O)COCCOCCNC(=O)CC[C@H](NC(=O)CCCCCCCCCCCCCCCCC(=O)O)C(=O)O)C(=O)N[C@@H](Cc1c[nH]cn1)C(=O)N[C@@H](CCC(N)=O)C(=O)NC(C)(C)C(=O)N[C@@H](CCC(=O)O)C(=O)N[C@@H](Cc1ccccc1)C(=O)N[C@H](C(=O)N[C@@H](CC(N)=O)C(=O)N[C@@H](Cc1ccc(O)cc1)C(=O)N[C@@H](CC(C)C)C(=O)N[C@@H](CC(C)C)C(=O)N[C@@H](C)C(=O)NCC(=O)NCC(=O)N1CCC[C@H]1C(=O)N[C@@H](CO)C(=O)N[C@@H](CO)C(=O)NCC(=O)N[C@@H](C)C(=O)N1CCC[C@H]1C(=O)N1CCC[C@H]1C(=O)N1CCC[C@H]1C(=O)N[C@@H](CO)C(N)=O)C(C)C) [Example 30] | > 5 | 0.00572 | > 5
5 | Ac-[dY]AEGT[αMePhe(2-F)]ISDYSIALDKK([AEEA-AEEA-γGlu-C20 diacid])HQ[Aib]EFVNYLLEGGPSSGAPPPS-NH2 (SMILES CC[C@H](C)[C@H](NC(=O)[C@H](CO)NC(=O)[C@H](Cc1ccc(O)cc1)NC(=O)[C@H](CC(=O)O)NC(=O)[C@H](CO)NC(=O)[C@@H](NC(=O)[C@](C)(Cc1ccccc1F)NC(=O)[C@@H](NC(=O)CNC(=O)[C@H](CCC(=O)O)NC(=O)[C@H](C)NC(=O)[C@@H](Cc1ccc(O)cc1)NC(C)=O)[C@@H](C)O)[C@@H](C)CC)C(=O)N[C@@H](C)C(=O)N[C@@H](CC(C)C)C(=O)N[C@@H](CC(=O)O)C(=O)N[C@@H](CCCCN)C(=O)N[C@@H](CCCCNC(=O)COCCOCCNC(=O)COCCOCCNC(=O)CC[C@H](NC(=O)CCCCCCCCCCCCCCCCCCC(=O)O)C(=O)O)C(=O)N[C@@H](Cc1c[nH]cn1)C(=O)N[C@@H](CCC(N)=O)C(=O)NC(C)(C)C(=O)N[C@@H](CCC(=O)O)C(=O)N[C@@H](Cc1ccccc1)C(=O)N[C@H](C(=O)N[C@@H](CC(N)=O)C(=O)N[C@@H](Cc1ccc(O)cc1)C(=O)N[C@@H](CC(C)C)C(=O)N[C@@H](CC(C)C)C(=O)N[C@@H](CCC(=O)O)C(=O)NCC(=O)NCC(=O)N1CCC[C@H]1C(=O)N[C@@H](CO)C(=O)N[C@@H](CO)C(=O)NCC(=O)N[C@@H](C)C(=O)N1CCC[C@H]1C(=O)N1CCC[C@H]1C(=O)N1CCC[C@H]1C(=O)N[C@@H](CO)C(N)=O)C(C)C) [Example 33] | > 5 | 0.0551 | > 5
6 | Y[Aib]EGT[αMePhe(2-F)]ISDYSIALDKK([AEEA-AEEA-γGlu-C20 diacid])HQ[Aib]EFVNWLLAGGPSSGAPPPS-NH2 (N-terminus assumed; SMILES CC[C@H](C)[C@H](NC(=O)[C@H](CO)NC(=O)[C@H](Cc1ccc(O)cc1)NC(=O)[C@H](CC(=O)O)NC(=O)[C@H](CO)NC(=O)[C@@H](NC(=O)[C@](C)(Cc1ccccc1F)NC(=O)[C@@H](NC(=O)CNC(=O)[C@H](CCC(=O)O)NC(=O)C(C)(C)NC(=O)[C@@H](N)Cc1ccc(O)cc1)[C@@H](C)O)[C@@H](C)CC)C(=O)N[C@@H](C)C(=O)N[C@@H](CC(C)C)C(=O)N[C@@H](CC(=O)O)C(=O)N[C@@H](CCCCN)C(=O)N[C@@H](CCCCNC(=O)COCCOCCNC(=O)COCCOCCNC(=O)CC[C@H](NC(=O)CCCCCCCCCCCCCCCCCCC(=O)O)C(=O)O)C(=O)N[C@@H](Cc1c[nH]cn1)C(=O)N[C@@H](CCC(N)=O)C(=O)NC(C)(C)C(=O)N[C@@H](CCC(=O)O)C(=O)N[C@@H](Cc1ccccc1)C(=O)N[C@H](C(=O)N[C@@H](CC(N)=O)C(=O)N[C@@H](Cc1c[nH]c2ccccc12)C(=O)N[C@@H](CC(C)C)C(=O)N[C@@H](CC(C)C)C(=O)N[C@@H](C)C(=O)NCC(=O)NCC(=O)N1CCC[C@H]1C(=O)N[C@@H](CO)C(=O)N[C@@H](CO)C(=O)NCC(=O)N[C@@H](C)C(=O)N1CCC[C@H]1C(=O)N1CCC[C@H]1C(=O)N1CCC[C@H]1C(=O)N[C@@H](CO)C(N)=O)C(C)C) [Example 26] | > 5 | 0.00991 | 0.00569
7 | Y[Aib]EGTFISDYSILLDKK([AEEA-AEEA-γGlu-C18 diacid])HQ[Aib]DFVNYLLAAGPSSGAPPPS-NH2 (N-terminus assumed; SMILES CC[C@H](C)[C@H](NC(=O)[C@H](CO)NC(=O)[C@H](Cc1ccc(O)cc1)NC(=O)[C@H](CC(=O)O)NC(=O)[C@H](CO)NC(=O)[C@@H](NC(=O)[C@H](Cc1ccccc1)NC(=O)[C@@H](NC(=O)CNC(=O)[C@H](CCC(=O)O)NC(=O)C(C)(C)NC(=O)[C@@H](N)Cc1ccc(O)cc1)[C@@H](C)O)[C@@H](C)CC)C(=O)N[C@@H](CC(C)C)C(=O)N[C@@H](CC(C)C)C(=O)N[C@@H](CC(=O)O)C(=O)N[C@@H](CCCCN)C(=O)N[C@@H](CCCCNC(=O)COCCOCCNC(=O)COCCOCCNC(=O)CC[C@H](NC(=O)CCCCCCCCCCCCCCCCC(=O)O)C(=O)O)C(=O)N[C@@H](Cc1c[nH]cn1)C(=O)N[C@@H](CCC(N)=O)C(=O)NC(C)(C)C(=O)N[C@@H](CC(=O)O)C(=O)N[C@@H](Cc1ccccc1)C(=O)N[C@H](C(=O)N[C@@H](CC(N)=O)C(=O)N[C@@H](Cc1ccc(O)cc1)C(=O)N[C@@H](CC(C)C)C(=O)N[C@@H](CC(C)C)C(=O)N[C@@H](C)C(=O)N[C@@H](C)C(=O)NCC(=O)N1CCC[C@H]1C(=O)N[C@@H](CO)C(=O)N[C@@H](CO)C(=O)NCC(=O)N[C@@H](C)C(=O)N1CCC[C@H]1C(=O)N1CCC[C@H]1C(=O)N1CCC[C@H]1C(=O)N[C@@H](CO)C(N)=O)C(C)C) [Example 31] | 1.75 | 0.0148 | > 5
8 | Y[dA]EGTLISDYSILLDKK([AEEA-AEEA-γGlu-C18 diacid])AQ[Aib]DFVNWLLAQGPSSGAPPPS-NH2 (N-terminus assumed; SMILES CC[C@H](C)[C@H](NC(=O)[C@H](CO)NC(=O)[C@H](Cc1ccc(O)cc1)NC(=O)[C@H](CC(=O)O)NC(=O)[C@H](CO)NC(=O)[C@@H](NC(=O)[C@H](CC(C)C)NC(=O)[C@@H](NC(=O)CNC(=O)[C@H](CCC(=O)O)NC(=O)[C@@H](C)NC(=O)[C@@H](N)Cc1ccc(O)cc1)[C@@H](C)O)[C@@H](C)CC)C(=O)N[C@@H](CC(C)C)C(=O)N[C@@H](CC(C)C)C(=O)N[C@@H](CC(=O)O)C(=O)N[C@@H](CCCCN)C(=O)N[C@@H](CCCCNC(=O)COCCOCCNC(=O)COCCOCCNC(=O)CC[C@H](NC(=O)CCCCCCCCCCCCCCCCC(=O)O)C(=O)O)C(=O)N[C@@H](C)C(=O)N[C@@H](CCC(N)=O)C(=O)NC(C)(C)C(=O)N[C@@H](CC(=O)O)C(=O)N[C@@H](Cc1ccccc1)C(=O)N[C@H](C(=O)N[C@@H](CC(N)=O)C(=O)N[C@@H](Cc1c[nH]c2ccccc12)C(=O)N[C@@H](CC(C)C)C(=O)N[C@@H](CC(C)C)C(=O)N[C@@H](C)C(=O)N[C@@H](CCC(N)=O)C(=O)NCC(=O)N1CCC[C@H]1C(=O)N[C@@H](CO)C(=O)N[C@@H](CO)C(=O)NCC(=O)N[C@@H](C)C(=O)N1CCC[C@H]1C(=O)N1CCC[C@H]1C(=O)N1CCC[C@H]1C(=O)N[C@@H](CO)C(N)=O)C(C)C) [Example 32] | > 5 | 0.00469 | > 5
